Positions count from the first letter of the chain named.
Legend:
[1] = target: T1, Recombinant human podoplanin Fc chimera protein (R&D, 3670-PL) (human, UniProt Q86YL7 23-128); experiment: competition ELISA: inhibition of podoplanin-Fc binding to CLEC-2 on solid phase
T1 construct: Bought reagent; not shown: Fc part of the bought chimera (detected with anti-human IgG Fc)
T1 sequence (looked up): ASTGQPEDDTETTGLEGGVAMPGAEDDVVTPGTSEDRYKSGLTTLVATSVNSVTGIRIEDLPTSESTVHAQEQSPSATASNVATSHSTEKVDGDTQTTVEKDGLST
From the text: (§1) The culture supernatants collected in Production Examples 1 and 2 were used to measure the inhibitory activity against binding of podoplanin to CLEC-2, following the ELISA protocol described in Patent Document 1.

[2] = target: T1, Recombinant human podoplanin Fc chimera …; experiment: competition ELISA: inhibition of podoplanin-Fc binding to CLEC-2 on solid phase; positive control
From the text: as §1
The mouse antibody PG4D2 (PG4D2) was used as a positive control. The mouse antibody PG4D2 is a monoclonal antibody that is obtained from the NITE P-02071 (PG4D2) hybridoma.

[3] = target: T2, Peptide of the human podoplanin PLAG4 domain (WT-hPLAG4 (Genscript, 788349-1)) (human, UniProt Q86YL7 76-89, limits assumed); experiment: ELISA, PLAG4 peptide on solid phase, culture supernatant; the reference itself, set as 100%
T2 construct: domain: PLAG4 domain
T2 peptide (looked up): TGIRIEDLPTSEST
From the text: The culture supernatants collected in Production Examples 1 and 2 were used to measure the binding activity to the podoplanin PLAG4 domain, following the ELISA protocol described in Patent Document 1. A peptide of the human podoplanin PLAG4 domain (WT-hPLAG4 (Genscript, 788349-1)) as an antigen peptide was immobilized on a solid phase, and a preadsorbed goat biotin-conjugated anti-human IgG Fc antibody (Abcam, ab98618) and β-Gal-conjugated streptavidin (Roche Diagnostics, 11112481001) were used for a detection purpose.
The avidity (antibody titer) of each antibody was expressed relative to that of the mouse-human chimeric antibody chPG4D2, which is set as 100%.

B1: Humanized antibody K4 (antibody, human IgG4 S228P, kappa, V domains shown)
VH: EVQLVESGGGLVQPGGSLRLSCAASGFTFSGFGMLWVRQAPGKGLEWVAYISSVSSRIYYADTVKGRFTISRDNAKNSLYLQMNSLRAEDTAVYYCARESYGPAWFAYWGQGTLVTVSS
VL: DIVMTQSPLSLPVTPGEPASISCRSSQHIVHIDGNTYLEWYLQKPGQSPQLLIYKVSNRFSGVPDRFSGSGSGTDFTLKISRVEAEDVGVYYCFQGSHVPYTFGGGTKVEIKR
Q: For B1, which IC50 [1] is on record?
A: 0.36 µg/mL

B2: Humanized antibody K5 (antibody, human IgG4 S228P, kappa, V domains shown)
VH: B1 VH with A49S, A75S, S78T
VL: B1 VL
Q: With B2 as the binder, how does the IC50 [1] read?
A: 0.364 µg/mL

B3: Mouse antibody PG4D2 (antibody, V domains shown)
VH: DVQLVESGGGLVQPGGSRKLSCAASGFTFSGFGMLWVRQAPEKGLEWVAYISSVSSRIYYADTVKGRFTISRDNPKNTLFLQMTSLRSEDTAMYYCARESYGPAWFAYWGQGTLVTVSA
VL: DVLMTQTPLSLPVSLGDQASISCRSSQHIVHIDGNTYLEWYLQQPGQSPKLLIYKVSNRFSGVPDRFSGSGSGTDFTLRISRVEAEDLGVYYCFQGSHVPYTFGGGTKLEMK
Q: B3 was tested. Which IC50 [2] did it give?
A: 0.371 µg/mL

B4: Mouse-human chimeric antibody chPG4D2 (antibody, human IgG4 S228P, kappa, V domains shown)
VH: B3 VH
VL: DVLMTQTPLSLPVSLGDQASISCRSSQHIVHIDGNTYLEWYLQQPGQSPKLLIYKVSNRFSGVPDRFSGSGSGTDFTLRISRVEAEDLGVYYCFQGSHVPYTFGGGTKLEMKR
Q: How did the “Avidity (antibody titer) (%) relative to chPG4D2” value [3] turn out when B4 was run?
A: 100%

Q: What about the IC50 [1] of the same binder?
A: 0.406 µg/mL
